This is an account of results in PMC2885824.

The target of this data set is human alpha-thrombin (Homo sapiens, UniProt P00734;P00734 328-363;364-622). The experiment in a line: competition.

Consider GGTTGGTGTGGTTGG (structured_DNA) [15nt anti-thrombin DNA aptamer], for which the binding result is listed as “binds”.
